± gives the standard deviation of the averaged measurements.
Tested on: ATP
Assay: switch fluorescence ratio, 500 uM ATP over buffer (Cy3 cluster intensity, sum of 5 cycles each) (fold (ratio)); higher = stronger signal-on switching upon ATP binding; sequences stand for … in TCGTCGGCAGCGTCAGATGTGTATAAGAGACAGTTTTTTTTTTTTTTTTTTTTTTTTT…TC
Settings: aptamer strand: ATP DNA aptamer (quencher-CACCTGGGGGAGTATTGCGGAGGAAGG + anchor), 100 nM annealed; ATP concentration: 500 uM
How it was run: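 Per cluster, summed Cy3 intensity from the target cycles was divided by that from the buffer cycles to give the fluorescence ratio, then averaged per switch-domain sequence. Clusters outside 100-1000 RFU were excluded. The Cy3-labelled switching-strand clusters, on a modified Illumina MiSeq flow-cell, were annealed to 100 nM quencher-labelled ATP aptamer and imaged in selection buffer, then after 15 min with 500 uM ATP at 22 °C, for five cycles with NaOH stripping and re-annealing between them.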
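Also: ATP exposure 15 min at 22 °C before imaging.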

| Sequence | switch fluorescence ratio |
| --- | --- |
| GTGATAATGT | 0.981 ± 0.027 |
| GTGATACGGG | 1.04 ± 0.021 |
| GTGATAGTAA | 1.006 ± 0.0099 |
| GTGATATCGG | 1.05 ± 0.034 |
| GTGATCCTTC | 1.03 ± 0.034 |
| GTGATCTAGG | 1.04 ± 0.033 |
| GTGATGAGCG | 0.979 ± 0.037 |
| GTGATTAATC | 1.01 ± 0.075 |
| GTGATTGACT | 1.03 ± 0.025 |
| GTGATTGAGT | 0.9707 ± 0.0089 |
| GTGCACGTTG | 1.01 ± 0.019 |
| GTGCATGTGG | 0.9701 ± 0.0056 |
| GTGCGGAGAA | 0.986 ± 0.035 |
| GTGCTAACGG | 0.9633 ± 0.0069 |
| GTGCTAGGGT | 0.988 ± 0.02 |
| GTGCTGAATG | 1.02 ± 0.016 |
| GTGCTGGATT | 1.02 ± 0.018 |
| GTGCTGGTGG | 0.9839 ± 0.0043 |
| GTGCTGGTTT | 1.05 ± 0.14 |
| GTGCTTACGA | 1.068 ± 0.01 |
| GTGGAAGGCG | 0.975 ± 0.03 |
| GTGGAAGGGC | 1.03 ± 0.079 |
| GTGGACTTAA | 0.9953 ± 0.0046 |

| Sequence | switch fluorescence ratio |
| --- | --- |
| GTGGACTTTG | 0.971 ± 0.053 |
| GTGGAGGGGC | 0.958 ± 0.081 |
| GTGGATAAGA | 1.0003 ± 1.9e-06 |
| GTGGATCAAA | 1.02 ± 0.049 |
| GTGGATTTTT | 0.991 ± 0.015 |
| GTGGCACCTA | 0.988 ± 0.018 |
| GTGGCAGACC | 1.01 ± 0.012 |
| GTGGCAGGCA | 0.984 ± 0.033 |
| GTGGCATGTT | 0.9788 ± 0.0038 |
| GTGGCCATGC | 1.01 ± 0.025 |
| GTGGCCTGGA | 1.01 ± 0.025 |
| GTGGCGCTTT | 0.976 ± 0.023 |
| GTGGCGTAGG | 0.981 ± 0.021 |
| GTGGCTAACG | 0.972 ± 0.06 |
| GTGGCTGGGT | 0.981 ± 0.015 |
| GTGGGAATAT | 1.001 ± 0.0083 |
| GTGGGACAGC | 1.02 ± 0.052 |
| GTGGGACAGG | 1.01 ± 0.015 |
| GTGGGAGGAG | 0.985 ± 0.031 |
| GTGGGAGTTT | 1.01 ± 0.043 |
| GTGGGATAAA | 0.969 ± 0.011 |
| GTGGGATCTG | 0.9894 ± 0.008 |
| GTGGGCGGCC | 0.99 ± 0.028 |

| Sequence | switch fluorescence ratio |
| --- | --- |
| GTGGGCGGGA | 1.07 ± 0.14 |
| GTGGGCGGGC | 1.02 ± 0.093 |
| GTGGGGACGG | 0.977 ± 0.053 |
| GTGGGGAGGG | 1 ± 0.016 |
| GTGGGGAGTG | 1.01 ± 0.045 |
| GTGGGGATCC | 1.025 ± 0.0046 |
| GTGGGGCGCG | 1.02 ± 0.038 |
| GTGGGGGAGA | 0.9868 ± 0.0059 |
| GTGGGGGATG | 1 ± 0.033 |
| GTGGGGGG | 0.999 ± 0.029 |
| GTGGGGGTGT | 1.05 ± 0.055 |
| GTGGGGGTTG | 0.976 ± 0.043 |
| GTGGGGTAGA | 1.05 ± 0.021 |
| GTGGGGTCAA | 0.9985 ± 0.0085 |
| GTGGGGTCGC | 0.978 ± 0.012 |
| GTGGGGTTTC | 0.977 ± 0.032 |
| GTGGGTAATT | 0.995 ± 0.033 |
| GTGGGTAGAG | 1 ± 0.057 |
| GTGGGTAGTG | 0.996 ± 0.038 |
| GTGGGTAGTT | 0.99 ± 0.076 |
| GTGGGTATAC | 1.01 ± 0.026 |
| GTGGGTCGTT | 1 ± 0.031 |
| GTGGGTGGTG | 1.015 ± 0.0046 |

| Sequence | switch fluorescence ratio |
| --- | --- |
| GTGGGTTCGG | 1 ± 0.031 |
| GTGGGTTTTT | 1.01 ± 0.032 |
| GTGGTAATTG | 0.972 ± 0.016 |
| GTGGTAGAGC | 0.991 ± 0.033 |
| GTGGTATCAC | 1 ± 0.011 |
| GTGGTCGGGT | 0.974 ± 0.044 |
| GTGGTCTGCC | 0.958 ± 0.0044 |
| GTGGTGCCAA | 1.01 ± 0.026 |
| GTGGTGGGGG | 0.992 ± 0.034 |
| GTGGTGTACT | 0.985 ± 0.0081 |
| GTGGTTCCAA | 0.9932 ± 0.0063 |
| GTGGTTCTTG | 0.99 ± 0.019 |
| GTGGTTGTGC | 0.97 ± 0.035 |
| GTGGTTTAAC | 1.04 ± 0.0087 |
| GTGGTTTGCT | 1.01 ± 0.013 |
| GTGGTTTGGA | 0.989 ± 0.031 |
| GTGGTTTGGG | 0.988 ± 0.06 |
| GTGGTTTTGG | 1 ± 0.035 |
| GTGTAAAAGC | 1.03 ± 0.011 |
| GTGTAAATTT | 0.991 ± 0.04 |
| GTGTAAGGGG | 0.9943 ± 0.0094 |
| GTGTAAGTGT | 0.9821 ± 0.0046 |
| GTGTAATTAG | 0.982 ± 0.035 |

| Sequence | switch fluorescence ratio |
| --- | --- |
| GTGTACTGGG | 0.993 ± 0.017 |
| GTGTACTTAC | 1.2 ± 0.022 |
| GTGTATCACG | 1.015 ± 0.0048 |
| GTGTATTTTG | 0.996 ± 0.014 |
| GTGTCAAAGA | 0.984 ± 0.02 |
| GTGTCTAGTA | 1 ± 0.02 |
| GTGTCTGGGA | 0.985 ± 0.024 |
| GTGTCTTTGA | 0.986 ± 0.055 |
| GTGTGACGGT | 0.949 ± 0.019 |
| GTGTGAGCGG | 0.9901 ± 0.0052 |
| GTGTGAGGTT | 0.989 ± 0.019 |
| GTGTGAGTGC | 1.06 ± 0.024 |
| GTGTGATGTT | 0.99 ± 0.042 |
| GTGTGCACGC | 1.05 ± 0.065 |
| GTGTGCAGTG | 0.954 ± 0.01 |
| GTGTGGAAGA | 1.019 ± 0.0054 |
| GTGTGGGAGG | 1.04 ± 0.028 |
| GTGTGGGAGT | 0.9963 ± 0.0016 |
| GTGTGGGATC | 1.013 ± 0.0039 |
| GTGTGGGCAG | 0.973 ± 0.0026 |
| GTGTGGGGCC | 0.973 ± 0.012 |
| GTGTGGGGGA | 1.02 ± 0.04 |
| GTGTGGGTAT | 0.985 ± 0.016 |

| Sequence | switch fluorescence ratio |
| --- | --- |
| GTGTTAGACT | 0.9618 ± 0.0092 |
| GTGTTAGTCC | 1.05 ± 0.11 |
| GTGTTATAAT | 0.986 ± 0.021 |
| GTGTTATATA | 0.986 ± 0.013 |
| GTGTTATCAC | 0.984 ± 0.054 |
| GTGTTATCGC | 1.011 ± 0.0015 |
| GTGTTATGAT | 0.9574 ± 0.0068 |
| GTGTTATGCA | 1.01 ± 0.021 |
| GTGTTGAGAA | 0.98 ± 0.015 |
| GTGTTGATTT | 0.9625 ± 0.0065 |
| GTGTTGGACC | 0.9782 ± 0.00099 |
| GTGTTGGGTG | 1.01 ± 0.011 |
| GTGTTGTATT | 0.988 ± 0.015 |
| GTGTTTATGG | 0.984 ± 0.011 |
| GTGTTTGAAA | 0.998 ± 0.027 |
| GTGTTTGGAA | 0.993 ± 0.012 |
| GTGTTTGGCG | 0.9981 ± 0.0051 |
| GTGTTTTATA | 0.977 ± 0.026 |
| GTGTTTTGTC | 1.02 ± 0.068 |
| GTTAAAAAAA | 0.958 ± 0.021 |
| GTTAAAAAGG | 0.998 ± 0.022 |
| GTTAAATTAG | 0.9875 ± 0.0056 |
| GTTAAATTCA | 1 ± 0.024 |

| Sequence | switch fluorescence ratio |
| --- | --- |
| GTTAACGGAC | 1.17 ± 0.098 |
| GTTAACTCGG | 0.985 ± 0.047 |
| GTTAACTCTG | 0.9801 ± 0.0084 |
| GTTAAGGGCC | 0.99 ± 0.011 |
| GTTAATATAG | 0.992 ± 0.035 |
| GTTAATTATT | 1.06 ± 0.085 |
| GTTAATTTGC | 0.984 ± 0.04 |
| GTTAATTTTT | 1.01 ± 0.043 |
| GTTACAAGAC | 1.21 ± 0.048 |
| GTTACCCAGT | 1.049 ± 0.0098 |
| GTTACCGGAC | 1.5 ± 0.034 |
| GTTACCGTTT | 1.02 ± 0.053 |
| GTTACTGCGG | 0.98 ± 0.021 |
| GTTAGCGCTT | 0.974 ± 0.025 |
| GTTAGCGGTT | 0.9884 ± 0.0034 |
| GTTAGCTAGG | 1.04 ± 0.026 |
| GTTAGGTTAT | 1 ± 0.018 |
| GTTAGTAAGG | 1.01 ± 0.041 |
| GTTAGTACTA | 1 ± 0.038 |

— the supplement of paper PMC10126150
